By Kd is commonly meant the equilibrium constant for the complex coming apart. Low values mean tighter binding, high ones weaker binding.

B1: Kv1.3 (other)
chain: MTVVPGDHLLEPEAAGGGGGDPPQGGCGSGGGGGGCDRYEPLPPALPAAGEQDCCGERVVINISGLRFETQLKTLCQFPETLLGDPKRRMRYFDPLRNEYFFDRNRPSFDAILYYYQSGGRIRRPVNVPIDIFSEEIRFYQLGEEAMEKFREDEGFLREEERPLPRRDFQRQVWLLFEYPESSGPARGIAIVSVLVILISIVIFCLETLPEFRDEKDYPASPSQDVFEAANNSTSGAPSGASSFSDPFFVVETLCIIWFSFELLVRFFACPSKATFSRNIMNLIDIVAIIPYFITLGTELAERQGNGQQAMSLAILRVIRLVRVFRIFKLSRHSKGLQILGQTLKASMRELGLLIFFLFIGVILFSSAVYFAEADDPSSGFNSIPDAFWWAVVTMTTVGYGDMHPVTIGGKIVGSLCAIAGVLTIALPVPVIVSNFNYFYHRETEGEEQAQYMHVGSCQHLSSSAEELRKARSNSTLSKSEYMVIEEGGMNHSAFPQTPFKTGNSTATCTTNNNPNSCVNIKKIFTDV
As to B1, the dissociation constant (Kd) in the experiment with ShK(D3) was 0.07 nM.

B2: Kv1.1 (other)
chain: MTVMSGENADEASTAPGHPQDGSYPRQADHDDHECCERVVINISGLRFETQLKTLAQFPNTLLGNPKKRMRYFDPLRNEYFFDRNRPSFDAILYYYQSGGRLRRPVNVPLDMFSEEIKFYELGEEAMEKFREDEGFIKEEERPLPEKEYQRQVWLLFEYPESSGPARVIAIVSVMVILISIVIFCLETLPELKDDKDFTGTIHRIDNTTVIYTSNIFTDPFFIVETLCIIWFSFELVVRFFACPSKTDFFKNIMNFIDIVAIIPYFITLGTEIAEQEGNQKGEQATSLAILRVIRLVRVFRIFKLSRHSKGLQILGQTLKASMRELGLLIFFLFIGVILFSSAVYFAEAEEAESHFSSIPDAFWWAVVSMTTVGYGDMYPVTIGGKIVGSLCAIAGVLTIALPVPVIVSNFNYFYHRETEGEEQAQLLHVSSPNLASDSDLSRRSSSTISKSEYMEIEEDMNNSIAHYRQANIRTGNCTTADQNCVNKSKLLTDV
For the molecule B2, the results for the Kd in the experiment with ShK(L1), with ShK(D2) and with ShK(L3) were 1 nM, 1.1 nM and 1.1 nM, respectively.
